In US20030224390A1, “Method of identifying conformation-sensitive binding peptides and uses thereof” (Karo Bio AB, priority 2000, published 2003):
Values belong to the molecule of their own block, whether it stands above or below them.

Columns and labels:
[1] = target: T1, estrogen receptor (ER) α (Homo sapiens, UniProt P03372); experiment: Yeast two-hybrid screening of LXXLL peptide library, ligand induced β-galactosidase activity (FIG. 1, Table 501); type: cell-based; conditions: with and without estradiol
T1 construct: expressed in transfected cells; host or cells: Saccharomyces cerevisiae PJ69-α
T1 sequence (P03372 1-595): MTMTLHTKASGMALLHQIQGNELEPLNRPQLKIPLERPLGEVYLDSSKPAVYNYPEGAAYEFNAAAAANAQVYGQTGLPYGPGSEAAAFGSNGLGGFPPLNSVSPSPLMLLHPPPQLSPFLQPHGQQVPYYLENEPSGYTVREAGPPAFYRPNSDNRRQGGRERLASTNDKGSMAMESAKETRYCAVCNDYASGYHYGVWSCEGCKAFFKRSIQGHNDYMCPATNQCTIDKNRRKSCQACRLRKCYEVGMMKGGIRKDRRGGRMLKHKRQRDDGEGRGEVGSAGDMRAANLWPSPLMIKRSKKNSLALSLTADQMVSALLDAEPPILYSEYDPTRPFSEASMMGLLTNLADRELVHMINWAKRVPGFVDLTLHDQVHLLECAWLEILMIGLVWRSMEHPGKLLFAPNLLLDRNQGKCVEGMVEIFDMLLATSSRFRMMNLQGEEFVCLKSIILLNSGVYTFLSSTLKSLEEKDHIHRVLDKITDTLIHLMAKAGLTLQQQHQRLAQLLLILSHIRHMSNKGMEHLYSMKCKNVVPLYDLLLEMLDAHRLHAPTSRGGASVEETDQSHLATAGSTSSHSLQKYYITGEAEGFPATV
Text: A directed peptide library (X5LXXLLX5, SEQ ID NO:264) containing the LXXLL motif (previously identified as common in peptides binding estrogen receptor) as a carboxy-terminal fusion to the Gal4 DNA binding domain was constructed with an overall complexity of […] independent peptides. The LXXLL motif library peptides were encoded by the degenerate DNA sequence (NNK)5TTA(NNK)2(TTA)2(NNK)5 (SEQ ID NO:265); TTA is the preferred Leu codon in yeast. NNK encodes a stop codon so a few of the peptides generated will be shorter than 15 a.a. The shortest interacting peptides will likely be 10-mers. This library was transformed into the Saccharomyces cerevisiae PJ69-α yeast strain expressing estrogen receptor (ER) α as a carboxy-terminal fusion to the Gal4 activation domain. […] Those colonies able to grow by inducing the integrated GAL4 driven HIS3 reporter were transferred into 0.25 ml of rich media in a 0.5 ml block.
Cells were pelleted by centrifugation, the media removed and the cells lysed with buffer containing 2.5% CHAPS (3-(3-Cholamidopropyl) dimethyl ammonio-1-propanesulfonate) detergent. A preliminary OD600 was determined to normalize β-galactosidase activity of each well with cell density. […] Yeast clones that generated a value equal to or greater than 0.5 were verified using the same method. Verified clones were then subjected to a final test of ligand induced β-galactosidase activity. […] Ten clones displaying the greatest ligand induced β-galactosidase activity were studied further.
Plasmids containing the peptides were isolated from the yeast cells and the amino acid sequences (Table 501) deduced by DNA sequencing of the library inserts. In Table 501, the underlined sequence is encoded by vector DNA, and the “*” represents the endogenous stop codon of the vector, and is downstream of the cloning site. Several peptides contain the vector-encoded LDLQPS (SEQ ID NO:266) sequence. B5H10 is believed to be the result of a double insert, with the second part being encoded by the complementary sequence. Peptides B1A1 and B1G8 were shorter than the other isolates because the clones encoding them carry a premature stop codon, which is inherent in the NNK library. Because of a frame shift, neither peptide B6A1 nor B3E2 contained the sequence encoded by vector DNA.

[2] = target: ERβ (Homo sapiens, UniProt Q92731); experiment: Phage ELISA fingerprint: peptide binding to immobilized ER β with modulator present (Table 14B)
[3] = target: T2, Gal4 transcriptional activation domain (AD) fused in frame with AR (pGAD-C2) (yeast, UniProt P10275 1-920, limits assumed); experiment: cell-based or functional assay
T2 sequence (looked up): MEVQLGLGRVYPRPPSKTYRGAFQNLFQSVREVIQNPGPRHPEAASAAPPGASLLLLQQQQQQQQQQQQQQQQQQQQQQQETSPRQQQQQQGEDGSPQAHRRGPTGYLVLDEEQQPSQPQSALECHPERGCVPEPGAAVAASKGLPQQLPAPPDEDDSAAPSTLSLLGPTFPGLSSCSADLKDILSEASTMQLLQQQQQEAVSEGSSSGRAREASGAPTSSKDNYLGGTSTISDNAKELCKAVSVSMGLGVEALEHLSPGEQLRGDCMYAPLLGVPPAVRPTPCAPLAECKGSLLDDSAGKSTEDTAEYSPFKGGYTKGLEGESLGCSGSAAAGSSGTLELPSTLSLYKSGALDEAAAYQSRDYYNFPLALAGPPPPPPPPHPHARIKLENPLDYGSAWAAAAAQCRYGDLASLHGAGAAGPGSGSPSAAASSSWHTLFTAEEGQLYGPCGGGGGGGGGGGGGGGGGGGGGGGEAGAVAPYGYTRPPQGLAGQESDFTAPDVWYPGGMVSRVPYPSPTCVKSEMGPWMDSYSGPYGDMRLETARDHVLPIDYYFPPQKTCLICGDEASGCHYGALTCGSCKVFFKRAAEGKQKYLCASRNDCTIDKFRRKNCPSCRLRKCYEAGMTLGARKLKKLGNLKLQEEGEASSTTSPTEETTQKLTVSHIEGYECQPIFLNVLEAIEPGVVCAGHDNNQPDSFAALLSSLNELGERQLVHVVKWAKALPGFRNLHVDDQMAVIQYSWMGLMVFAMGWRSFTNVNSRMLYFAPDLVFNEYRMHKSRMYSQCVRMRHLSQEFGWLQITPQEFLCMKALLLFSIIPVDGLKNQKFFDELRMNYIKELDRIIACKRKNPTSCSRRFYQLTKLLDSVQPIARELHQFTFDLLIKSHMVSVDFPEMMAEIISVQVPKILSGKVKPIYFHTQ

[4] = target: T2, Gal4 transcriptional activation domain …; experiment: cell-based or functional assay; remark: listed apart in the source
[5] = target: T3, estrogen receptor (ER) α as a carboxy-terminal fusion to the Gal4 activation domain (yeast, UniProt P03372 1-595, limits assumed); experiment: cell-based or functional assay
T3 sequence (looked up): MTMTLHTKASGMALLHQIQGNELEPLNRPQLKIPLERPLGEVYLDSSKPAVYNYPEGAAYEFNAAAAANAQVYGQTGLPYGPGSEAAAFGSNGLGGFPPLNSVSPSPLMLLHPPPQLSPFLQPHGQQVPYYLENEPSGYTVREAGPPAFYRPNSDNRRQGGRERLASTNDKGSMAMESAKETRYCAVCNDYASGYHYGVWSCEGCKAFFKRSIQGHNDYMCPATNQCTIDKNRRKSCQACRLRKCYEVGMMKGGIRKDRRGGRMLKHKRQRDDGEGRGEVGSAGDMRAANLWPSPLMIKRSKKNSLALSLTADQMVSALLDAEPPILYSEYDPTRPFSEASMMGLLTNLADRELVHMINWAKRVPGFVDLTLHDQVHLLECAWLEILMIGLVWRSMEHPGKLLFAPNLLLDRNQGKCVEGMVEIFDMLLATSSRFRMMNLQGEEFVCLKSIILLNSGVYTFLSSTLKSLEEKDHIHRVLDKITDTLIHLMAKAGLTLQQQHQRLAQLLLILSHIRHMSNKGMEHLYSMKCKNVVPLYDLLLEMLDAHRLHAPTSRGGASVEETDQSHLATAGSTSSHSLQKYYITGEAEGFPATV

[6] = target: ER β (immobilized, in vitro phage assays) (UniProt Q92731 1-530, limits assumed); experiment: phage ELISA; ICI 182,780 1 µM
Chain of ER β (immobilized, in vitro phage assays) (Q92731 whole entry): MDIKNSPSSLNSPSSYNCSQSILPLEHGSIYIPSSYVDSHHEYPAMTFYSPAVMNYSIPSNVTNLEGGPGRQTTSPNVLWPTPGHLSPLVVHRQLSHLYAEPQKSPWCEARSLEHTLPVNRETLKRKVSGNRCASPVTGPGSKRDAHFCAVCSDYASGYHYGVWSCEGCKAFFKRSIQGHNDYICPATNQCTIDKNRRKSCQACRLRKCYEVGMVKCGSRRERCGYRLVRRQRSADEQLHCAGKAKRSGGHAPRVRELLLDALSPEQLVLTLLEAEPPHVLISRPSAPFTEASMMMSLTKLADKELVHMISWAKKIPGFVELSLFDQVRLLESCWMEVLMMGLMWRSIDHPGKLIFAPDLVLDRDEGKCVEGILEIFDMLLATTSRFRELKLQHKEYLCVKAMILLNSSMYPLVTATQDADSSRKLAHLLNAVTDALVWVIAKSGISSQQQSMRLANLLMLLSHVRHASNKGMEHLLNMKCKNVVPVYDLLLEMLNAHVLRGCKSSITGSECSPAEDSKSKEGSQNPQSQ

Chain of ERβ (Q92731 whole entry, species assumed, the tested form may be a part): as the sequence (Q92731 whole entry) above

Fold Induction (ligand induced β-galactosidase activity) [1]: 4.5
Molecule: EFSPPSSLLALLLGGKSLEPLPIRYKNVKRQFTSNSRGSVDLQPS [B5H10]

Fold Induction (ligand induced β-galactosidase activity) [1]: 5
Molecule: EFSGVPILHMLLMLPSSLDLQOPS* [B4F6]

Fold Induction (ligand induced β-galactosidase activity) [1]: 3
Molecule: EFGGSVLLRELLCCYDALEPTTTR [B3E2]

Class Specific Fingerprint on ERβ: peptide binding, 4-OH Tamoxifen present ([2]; 4-OH tamoxifen (1 μM)): 0
Class Specific Fingerprint on ERβ: peptide binding, ICI 182,780 present ([2]; ICI 182,780 (1 μM)): 0
Class Specific Fingerprint on ERβ: peptide binding, Clomiphene present ([2]; clomiphene (10 μM)): 0
Class Specific Fingerprint on ERβ: peptide binding, Raloxifene present ([2]; raloxifene (1 μM)): 0
Molecule: SSNHQSSRLIELLSR [#4 ER./E2]

Fold Induction (ligand induced β-galactosidase activity) [1]: 2.5
Molecule: EFGCSAILRYLLRSPRDLDLQPS* [B5A2]

Fold Induction (ligand induced β-galactosidase activity) [1]: 6
Molecule: EFTSVSRLVTLLLQ* [B1G8]

Fold Induction (ligand induced β-galactosidase activity) [1]: 3
Molecule: EFFRATHLLRLLRTDSALDLQPS* [B6F3]

Fold Induction (ligand induced β-galactosidase activity) [1]: 11
Molecule: EFCPVGLLVHLLMQ* [B1A1]

Fold Induction (ligand induced β-galactosidase activity) [1]: 3.5
Molecule: EFTGSRLLLKLLRFPDSSTCSQA [B6A1]

Class Specific Fingerprint on ERβ: peptide binding, Nafoxidine present ([2]; nafoxidine (10 μM)): 5
Molecule: SSEACVGRWMLCEQLGVSR [12Bβ]

Fold Induction (ligand induced β-galactosidase activity) [1]: 12
Molecule: EFFRLRRLDRLLQDSFLLDLQPS* [B2G1]

Fold induction, yeast two-hybrid [3]: > 2 fold
β-galactosidase activity, yeast two-hybrid; CPA [4]: -0.0396
β-galactosidase activity, yeast two-hybrid; DHT [4]: 0.395
β-galactosidase activity, yeast two-hybrid; No Lig [4]: 0
β-galactosidase activity, yeast two-hybrid; RU [4]: 0.1
B1: M4D1 (peptide)
chain: MKLLSSIEQACDICRLKKLKCSKEKPKCAKCLKNNWECRYSPKTKRSPLTRAHLTEVESRLERLEQLFLLIFPREDLDMILKMDSLQDIKALLTGLFVQDNVNKDAVTDRLASVETDMPLTLRQHRISATSSSEESSNKGQRQLTVSEFRFPFHEMVREWESMGLERVRYAEP

fold induction of β-galactosidase by estradiol, yeast two-hybrid [5]: 3.5 fold
B2: B6A1 (peptide)
chain: MKLLSSIEQACDICRLKKLKCSKEKPKCAKCLKNNWECRYSPKTKRSPLTRAHLTEVESRLERLEQLFLLIFPREDLDMILKMDSLQDIKALLTGLFVQDNVNKDAVTDRLASVETDMPLTLRQHRISATSSSEESSNKGQRQLTVSEFTGSRLLLKLLRFPDSSTCSQA

fold induction of β-galactosidase by estradiol, yeast two-hybrid [5]: 3 fold
B3: B3E2 (peptide)
chain: MKLLSSIEQACDICRLKKLKCSKEKPKCAKCLKNNWECRYSPKTKRSPLTRAHLTEVESRLERLEQLFLLIFPREDLDMILKMDSLQDIKALLTGLFVQDNVNKDAVTDRLASVETDMPLTLRQHRISATSSSEESSNKGQRQLTVSEFGGSVLLRELLCCYDALEPTTTR

Fold induction, yeast two-hybrid [3]: 5 fold
β-galactosidase activity, yeast two-hybrid; CPA [4]: 0.292
β-galactosidase activity, yeast two-hybrid; DHT [4]: 1.72
β-galactosidase activity, yeast two-hybrid; No Lig [4]: 0.371
β-galactosidase activity, yeast two-hybrid; RU [4]: 0.5
B4: B2A7 (peptide)
chain: MKLLSSIEQACDICRLKKLKCSKEKPKCAKCLKNNWECRYSPKTKRSPLTRAHLTEVESRLERLEQLFLLIFPREDLDMILKMDSLQDIKALLTGLFVQDNVNKDAVTDRLASVETDMPLTLRQHRISATSSSEESSNKGQRQLTVSEFPELLAMTRWGRHAALLEPQRLPPPRTTTQPQTEFERMFFFTRPMRTTGLLDLQPS

Fold induction, yeast two-hybrid [3]: 10 fold
β-galactosidase activity, yeast two-hybrid; CPA [4]: 8.59
β-galactosidase activity, yeast two-hybrid; DHT [4]: 24.1
β-galactosidase activity, yeast two-hybrid; No Lig [4]: 2.53
β-galactosidase activity, yeast two-hybrid; RU [4]: 6.8
B5: M2H3 (peptide)
chain: MKLLSSIEQACDICRLKKLKCSKEKPKCAKCLKNNWECRYSPKTKRSPLTRAHLTEVESRLERLEQLFLLIFPREDLDMILKMDSLQDIKALLTGLFVQDNVNKDAVTDRLASVETDMPLTLRQHRISATSSSEESSNKGQRQLTVSEFRQSFVSEILGGGWLPLDLQPS

phage ELISA grade [6]: 0
Molecule: SSPGSREWFKDMLSR (also called 14Tβ; 14T-β) [α/β V (AB5)]

phage ELISA grade [6]: 0
Molecule: SSLDLSQFPMTASFLRESR (also called 35Eβ) [β II (B2)]

Fold induction, yeast two-hybrid [3]: 1 fold
β-galactosidase activity, yeast two-hybrid; CPA [4]: 0.395
β-galactosidase activity, yeast two-hybrid; DHT [4]: 0.616
β-galactosidase activity, yeast two-hybrid; No Lig [4]: 0.875
β-galactosidase activity, yeast two-hybrid; RU [4]: 0.4
B6: B8A10 (peptide)
chain: MKLLSSIEQACDICRLKKLKCSKEKPKCAKCLKNNWECRYSPKTKRSPLTRAHLTEVESRLERLEQLFLLIFPREDLDMILKMDSLQDIKALLTGLFVQDNVNKDAVTDRLASVETDMPLTLRQHRISATSSSEESSNKGQRQLTVSEFVNWDAVVPWSELVALLDLQPS
